Reference: the supplement of paper PMC11908140

B1: library; numbered along this chain (parent)
chain: MRKPRAAVGSGHRKQAASQEGRQKHAKNNSQAKPSACDGLARQPEEVVLQASVSSYHLFRDVAEVTAFRGSLLSWYDQEKRDLPWRRRAEDEMDLDRRAYAVWVSEVMLQQTQVATVINYYTGWMQKWPTLQDLASASLEEVNQLWAGLGYYSRGRRLQEGARKVVEELGGHMPRTAETLQQLLPGVGRYTAGAIASIAFGQATGVVDGNVARVLCRVRAIGADPSSTLVSQQLWGLAQQLVDPARPGDFNQAAMELGATVCTPQRPLCSQCPVESLCRARQRVEQEQLLASGSLSGSPDVEECAPNTGQCHLCLPPSEPWDQTLGVVNFPRKASRKPPREESSATCVLEQPGALGAQILLVQRPNSGLLAGLWEFPSVTWEPSEQLQRKALLQELQRWAGPLPATHLRHLGEVVHTFSHIKLTYQVYGLALEGQTPVTTVPPGARWLTQEEFHTAAVSTAMKKVFRVYQGQQPGTCMGSKRSQVSSPCSRKKPRMGQQVLDNFFRSHISTDAHSLNSAAQ

Variants of: B1
Assay: 8OG:A repair function score (normalized; synonymous = 0, nonsense = -1) (normalized log-likelihood score); higher = more repair activity (WT-like)
Conditions: with 8OG:A DNA repair reporter (GFP) in HEK-293 MUTYH KO cells
Summary of the method: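 Per-tile Rosace fitness scores were converted to a normalized repair function score anchored on synonymous and nonsense distributions. That scale puts synonymous medians at 0 and nonsense medians at -1. Variants with starting counts under 300 counts per million were discarded. Input came from sorting viable mCherry+ MUTYH knockout HEK-293 cells, carrying lentiviral MUTYH cDNA NNN codon-scan libraries in 10 pg/ml doxycycline and an 8OG:A GFP repair reporter, into GFP+ and GFP− bins at 72 h, three replicates per tile, followed by tile amplicon sequencing.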
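Note: cells sorted at 72 h after reporter transfection.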

8OG:A repair function score of substitutions, site by site:
L373: Q -0.26; F 0.16; W -0.229; E -0.788; A -0.596; H -0.452; D -1.15; P -1.03; K -0.314; I -0.315; S -0.647; G -0.502; T -0.0654; C -0.611; R -0.666; N -0.777; V -0.504; Y -0.225; M -0.286
Q363: S -0.169; W -0.451; E -0.341; G -0.38; C -0.306; F -0.479; I -0.184; L -0.242; H 0.0355; T -0.255; R 0.0264; P -0.208; N -0.441; M -0.284; K -0.227; V -0.293; Y -0.408; D -0.431
R364: Y -0.593; Q -0.529; L -0.747; H -0.405; T -0.411; M -0.577; P -0.519; S -0.2; D -0.614; E -0.504; A -0.285; N -0.633; G -0.353; I -0.878; V -0.616; W -1.11; C -0.262; K -0.245; F -0.639
G372: F -0.294; Y -0.393; T -0.157; N -0.294; H -0.297; V -0.75; R -0.304; E -0.387; S -0.15; C -0.263; K -0.479; W -0.135; L -0.351; A -0.461; D -0.324; M -0.639; P -0.669; I -0.775; Q -0.291
S378: T 0.295; V -0.2; K -0.24; G -0.248; A -0.104; E -0.297; C 0.0237; M -0.037; W -0.346; L -0.171; H -0.255; N 0.0818; R -0.122; Q 0.0825; I -0.143; F -0.0771; D -0.953; P -0.772; Y -0.26
A371: V -0.554; Y -0.46; K -0.182; D -0.824; T -0.307; M -0.439; W -0.408; R -0.219; C -0.182; E -0.577; L -0.5; I -0.776; S -0.172; N -0.476; G 0.0402; F -0.605; H -0.324; Q -0.374; P -0.216
L370: M -0.659; G -0.609; S -0.406; V -0.484; K -0.936; N -0.379; W -0.364; P -0.657; R -0.775; F -0.461; D -1; E -1.06; H -0.297; Q -0.398; A -0.326; T -0.332; Y -0.258; C -0.0696; I -0.377
S367: D -0.0756; C -0.0437; M 0.226; T 0.119; E 0.154; V 0.0128; A -0.145; H -0.207; P -0.0154; L -0.139; I -0.335; K 0.111; N 0.179; F -0.13; W 0.00054; Q -0.113; G -0.159; Y -0.204; R -0.201
G368: S -0.236; A -0.292; D -0.434; K -0.348; H -0.275; M -0.799; R -0.193; Y -0.663; I -0.7; W -0.913; L -0.532; C -0.369; E -0.692; T -0.332; Q -0.304; V -0.27; N -0.146; F -0.769; P -0.423
L369: M 0.201; R 0.0308; C -0.0782; T 0.0329; I -0.0978; V -0.297; Y 0.153; G -0.359; F 0.0478; D -0.723; W 0.187; N 0.0162; E -0.807; K -0.206; Q 0.0329; P 0.0626; H -0.345; A 0.0443; S -0.169
E375: K -0.462; A -0.313; C -0.342; T -0.355; V -0.423; Y -0.285; W -0.45; S -0.243; G -0.0637; H -0.347; M -0.229; R -0.462; L -0.83; I -0.715; Q 0.0245; F -0.673; N -0.407; P -0.897; D -0.434
P377: R -1.04; L -0.733; W -1.42; T -0.573; A -0.486; K -1.11; M -1.07; F -1.17; C -0.633; S -0.809; Y -0.964; N -0.977; H -1.31; G -1.26; E -1.13; Q -0.969; I -0.348; D -1.06; V -0.171
F376: D -0.964; L -0.608; K -0.92; H -0.879; T -0.441; E -1.28; S -0.657; A -0.775; N -1.17; P -1.02; M -0.13; R -1.31; Q -1.35; I -0.775; G -1.2; V -0.809; W -0.757; C -0.559; Y -0.715
V379: C -0.214; Q -0.792; S -0.0246; K -0.667; A 0.00194; T -0.0632; I -0.327; R -0.476; Y -0.744; F -0.299; G -0.37; M -0.148; N -0.658; H -0.391; L -0.463; P -0.937; D -0.793; E -0.777; W -0.453
W374: S -0.607; P -1.01; N -0.645; F -0.33; G -0.847; Y -0.274; H -0.924; C -0.633; V -0.874; Q -0.828; L -0.36; M 0.217; A -1.1; E -0.436; D -0.78; R -1.03; I -0.729; T -1.02; K -0.692
P365: M -0.184; Y -0.212; L -0.0397; Q -0.147; G -0.137; C 0.0287; V 0.0242; E 0.196; I 0.146; N 0.119; F -0.154; K 0.177; S -0.116; H -0.038; D 0.00966; A -0.0399; T -0.334; W -0.0852; R -0.0845
N366: W -0.042; S 0.0203; D -0.00541; T -0.00609; V -0.0917; Y 0.00766; M -0.0331; R -0.0785; E 0.176; A 0.0425; H 0.288; Q 0.152; P -0.104; K -0.0179; I -0.169; C -0.137; F -0.0908; L -0.0714; G -0.066
T380: A 0.0285; F 0.194; C -0.0502; H -0.465; N -0.171; I -0.128; L -0.0431; E -0.0632; D 0.0495; G 0.0924; K -0.0484; M -0.0793
